Measurements from the nanobody polyreactivity screen of Harvey et al. (2022).

Test: yeast display, Sf9 membrane polyspecificity reagent, FACS + sequencing; frameworks hold sequencing errors
Method in brief: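 Nanobodies from a synthetic yeast display library (Saccharomyces cerevisiae BJ5465), induced 36–48 hours with galactose, were stained 1 hour at 4 °C with 10% biotinylated, detergent-solubilized Sf9 membrane reagent, enriched on streptavidin microbeads, then FACS-sorted. Anti-HA (expression) and streptavidin (reagent binding) fluorescence set low and high (top ~1%) gates. Polyreactivity labels come from the gate of origin. Genes were colony-PCR amplified, MiSeq 2 × 250 sequenced and filtered by CDR length.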
With “QVQLVESVGGLVQAGGSLRLSCAASGSTFLRYAMGWYRQAPGKERELVAAITASGGSTYYADSVKGRFTISRDNAKKSVYLQMNSLKPEDTAVYYCAADGRYIGKNSHDLWIYGYYYWGQGTQVTVSS” the “polyreactivity (PSR sort gate)” value was “low polyreactivity”.
For “QVQLVESVGGLVQAGGSLRLSCAASGSTFSSYAMGWYRTAPGKERELVAALTASGGSTYYADSVKGRFTISRDNAKNTVYLQMNSLKPEDTAVYYCAAADVIFWLYYYWVQGTQVTVSS”, the “polyreactivity (PSR sort gate)” value was “low polyreactivity”.
In the case of “QVQLVESVGGLVQAGGSLRLSCAASGSTFVIYAMGWYRQAHGKERELVAAISGRTGSTYYADSVKGRFTISRDNAKNTVYLQMNSLKPEDTAVYYCAAYKRSGLKYGHWGQGTQVTVSS”, the “polyreactivity (PSR sort gate)” value is reported as “high polyreactivity”.
For “QVQLVESVGGLVQAGGSLRLSCAASGSTFVRYTMGWYRQAPGKERALVAAISWNGGRTYYADSVKGRFTISRDNTKNTVYLQMNSLKPEDTAVYYCNAVRLVYTGNSDYGYWGQGTQVTVSS”, the “polyreactivity (PSR sort gate)” value was “high polyreactivity”.
With “QVQLVESVGGLVQAGGSLRLSCAASGSTFWFYTMGWYRQAPGKERELVATITSGGSTNYADSVKGRFTISRDNAKNTVYLQMNSLKPEDTAVYYCAASSVLTNHDYWGQGTQVTVSS” the “polyreactivity (PSR sort gate)” value was “low polyreactivity”.
With “QVQLVESVGGLVQAGGSLRLSCAASGSTFYHYAMGWYRQAPGKVRELVASISHSGGRTFYADSVKGRFTISRDNAMNTVYLQMNSLKPEDTAVYYCAADWRTRYDYWGQGTQVTVSS” the “polyreactivity (PSR sort gate)” value was “low polyreactivity”.
In the case of “QVQLVESVGGLVQAGGSLRLSCAASGSTFYPNAMGLYRQAPGKESELVAAITSGGSTYYADSVKGRFTISRDNAKNTVYLQMNTLKPEDTAVYYCAAQRRYHLDTTIGPGNYYYWGQGTQVTVSS”, the “polyreactivity (PSR sort gate)” value is reported as “low polyreactivity”.
In the case of “QVQLVESVGGLVQAGGSLRLSCAASGSTIDGYAMGWYRQAPGKEREFVAAISFSSASTYYADSVKGRFTISRDNAKNTVYLQMNSLKPEDTAVYYCNADFFDSGGSIEYDSWGQGTQVTVSS”, the “polyreactivity (PSR sort gate)” value is reported as “low polyreactivity”.
In the case of “QVQLVESVGGLVQAGGSLRLSCAASGTFSPYAMGWYRQAPGKERELVAVITSNTGRTYADSVKGRFTISRDNAKNSVYLQMNSLKPEDTAVYYCAARSTYRHWYRTGSRFDYWGQGTQVTVSS”, the “polyreactivity (PSR sort gate)” value is reported as “low polyreactivity”.
In the case of “QVQLVESVGGLVQAGGSLRLSCAATRSIFKIMRWYRQAPGKERELVAAISSSVGNTYYADSVKGRFTISRDNAKNTVYLQMNSLKPEDTAVYYCAAQSKYYQYYSWGQGTQVTVSS”, the “polyreactivity (PSR sort gate)” value is reported as “high polyreactivity”.
For “QVQLVESVGGLVQAGGSLRLSCASSGNIFGAYAMGWYRQAPGKERELVAAIDSGSTNYADSVKGRFTISRDNAKNTVSLQMNSLKPEDTAVYYCNTKDQDVKVHHTSNTDDYWGQGTQVTVSS”, the “polyreactivity (PSR sort gate)” value was “low polyreactivity”.
In the case of “QVQLVESVGGLVQAGGSLRLSCDASGSTFTSYTMGWYRPAPGKERELVAAISRSDGDRTYYADSVKGRFTISRDNAKNTVYLQMNSLKPEDTAVYYCAAEVTPRIVRYYYWGQGTQVTVSS”, the “polyreactivity (PSR sort gate)” value is reported as “high polyreactivity”.
For “QVQLVESVGGLVQAGGSLRLSCPASGITFEQYAMGWYRQAPGKEREWVAAISSNGGITFYADSVKGRFTISRDNAKNTVYLQMNSLKPEDTAVYYCAARLCVTYPYIAYDYWGQGTQVTVSS”, the “polyreactivity (PSR sort gate)” value was “high polyreactivity”.
With “QVQLVESVGGLVQAGGSLRLSCPASGSIFGPYAMGWYRQAPGKERELVAAMTIGGDNTYYADSVKGRFTISRDNAKNTVYLQMNSLKPEDTAVYYCAAKYYGGKPHYYEYYYWGQGTQVTVSS” the “polyreactivity (PSR sort gate)” value was “low polyreactivity”.
With “QVQLVESVGGLVQAGGSLRLSFAASGRTFVWYVMGWYSQAPVKERELVAAISLRGGTTYYADSVKGRFTISRDNAKNTVYLQMNSLKPEDTAVYYCAIAGIRHVTSKFKGYHFGYWGQGTQVTVSS” the “polyreactivity (PSR sort gate)” value was “low polyreactivity”.
With “QVQLVESVGGLVQAGGSLRLSSAASGRIFSYKVMGWYRQAPGKESELVAAITSNDGSTYYADSVKGRFTISRDNAKNTVYLQMNSLKPVDTADYYCNADYGPVSLNEPFRDDYWGQGTQVTVSS” the “polyreactivity (PSR sort gate)” value was “low polyreactivity”.
With “QVQLVESVGGLVQAGGSLRLSSAASGRILGYYAMGWYRQAPGKERELVAAISRACSTNYADSVKGRFTISRDNAKNTVYLQMNSLKPEDTAVYYCAARPYRRGYNYWGQGSQVTVSS” the “polyreactivity (PSR sort gate)” value was “high polyreactivity”.
For “QVQLVESVGGLVQAGGSLRLTCAASGSIFYVYAMGWYRQAPGKERELVANIRDGGITYADSVKGRFTISRDNAKNTVYLQMNSLKPEDTAVYYCARDDTSPGYGDQSSNAAYYYRGQGTQVTVSS”, the “polyreactivity (PSR sort gate)” value was “low polyreactivity”.
With “QVQLVESVGGLVQAGGSLRLTCAASGSTFWLNDMGWYRQATGKERELVAAISFSGASTYYADSVKGRFTISRDNAKNTVYLQMNILKPEDTAVYYCNAGWGRAEFLSEAVFDSRMYYWGQGTQVTVSS” the “polyreactivity (PSR sort gate)” value was “low polyreactivity”.
With “QVQLVESVGGLVQEGGSLRLSSAATGYTFDVYAMGWSRQAPGKERELVAAISTRGTRTYYADSEKGRFTISRDNAKNTVYLQMNSLKPEDTAVYYCAAYVYDGETESRFDYWGQGTQVTVSS” the “polyreactivity (PSR sort gate)” value was “high polyreactivity”.
With “QVQLVESVGVLVQAGGSLRLSCAASGLIIDGYAMGWYRQAPGKERELVATITVSGTSTYYADSVKGRFTISRDNEKNTVYLQMNSLIPEDTAVYYCATDRNYGYYFVEYDHDYWGQGTQVTVSS” the “polyreactivity (PSR sort gate)” value was “low polyreactivity”.
For “QVQLVESVRGVVQAGGSLRLSCASSVFTFRWYAMGWFRQAPGKESELVADITRHGGSTYYADSVKGRFTISRDNAKNTVYLQMNSLKPEDTAVYYCAADLSWYDWEDDYWGQGTQVTVSS”, the “polyreactivity (PSR sort gate)” value was “low polyreactivity”.
In the case of “QVQLVESVRRLVQAGGSLRLSCAASGSIYYPYAMGWYRQAPGKEMELVAAITGHGGSTYYADSVKGRFTISRDNAKNTVYLQMNSLNPEDTAVYYCATGGYQPVLHRGYYRFNYWGQGTQVTVSS”, the “polyreactivity (PSR sort gate)” value is reported as “low polyreactivity”.
For “QVQLVESVVGLDQAGGSHRLSCAASGSIFATYAMGWYRHAPGKERELVAAITTRGGSTYYADSVKGRFTISRDNAKNTVYLLMYSLKPEDTAVYFCNALRWWSYGLNYCGQGTQVTVSS”, the “polyreactivity (PSR sort gate)” value was “high polyreactivity”.
In the case of “QVQLVESVVGLDQAGGSLSLSCAASAIILYYYSMGWYRQAPGKEREVVAAISSGGNTYYADSVKGRFTISRDNAKNTVYFQMNSLKPEDTAVYYCAAGNVIGGEYDYWGLGTQVTVSS”, the “polyreactivity (PSR sort gate)” value is reported as “low polyreactivity”.
With “QVQLVESVVGLVQAGCSLRLSCDASGFIFYYYTMGWYRQATGKERELVAAISRSGGRTYYADSVKGLFTISRDYAKNTVYLQMNSMKPDDTAVYYCAADTPYQTPPQQYVEYDYWGQCTQVTVSS” the “polyreactivity (PSR sort gate)” value was “high polyreactivity”.
With “QVQLVESVVGLVQAGGSLRLSCAASGRTFRVNAMGWYRQAPGKERELVAAITWSGGTTYYADSVKGRFTISRDNAKNTVYLQMNSLKPEDTAVYYCAADRFWYGSWYDYWGHGTQVTVSS” the “polyreactivity (PSR sort gate)” value was “high polyreactivity”.
For “QVQLVESVVGLVQAGGSLRVSCAAYGRTFWYYPMGWYRQAPGKERELVAGITFTGGRTYYADSVKGRFTISRDNAKHTVYLQMNSLKPEDTAVYYCAAAGLVVGRKDRDGYWGLGTQVTVSS”, the “polyreactivity (PSR sort gate)” value was “low polyreactivity”.
With “QVQLVESWAGLVQAGGSLRLSCAASGSTFSGYTMGWYRQAPGKEREFVAAISSRGGSTYYADSVKGRFTISRDNAKNTVYLHMNSLKPEDTAVYYCAAKVWARVDGRQFRMEYWGQGTQVSVSS” the “polyreactivity (PSR sort gate)” value was “high polyreactivity”.
In the case of “QVQLVESWGGLVQAAGSLRLSCAASGFIFRYNTMGSSRQAPAKERESVAAFSVSGARTYYADSVKGRFTISRDNAKNTVYLLMNSLKTEDTAVYYCNRRYPFYSRYNNDYWGQGTQVTVSS”, the “polyreactivity (PSR sort gate)” value is reported as “high polyreactivity”.
In the case of “QVQLVESWGGLVQAGASLRLSSAASGSIFGSYAMGSYRQAPGKERQLVAAITGIGGSTYYADSVKGRFTITRDNAKNTVYLQLNSLKPEDTAVYYCATRVRYRAPVVRGNYWGQGTQVTVSS”, the “polyreactivity (PSR sort gate)” value is reported as “high polyreactivity”.
In the case of “QVQLVESWGGLVQAGCSLRISCAASGSTLYSYAMGWNIQAPGKERELVAAINSGSNTYYADSVKGRFTISRDNAKNTVYLQMNSLKPEDTAVYYCAAKGIIYTGYDGARRAYGYWGQGTQVTVSS”, the “polyreactivity (PSR sort gate)” value is reported as “high polyreactivity”.
For “QVQLVESWGGLVQAGGRLRLSCAASGRTFPGYAMGWYRPAPRKERELVAGISYRGGSTYYADSVKGRFTISRDNAKYTDYLQMNSLNPEDTAVYYCARDYSRHKGDYWGQGTQVTVSS”, the “polyreactivity (PSR sort gate)” value was “low polyreactivity”.
In the case of “QVQLVESWGGLVQAGGSHRLSCDASGRIFTRNAMGWYRQAHGKERELVAAISYDCGSTYYADSVKVRFTISRDNAKNTVYLQMNSLKPEDTAVYYCATDLYLHGYEYWGQGTQVTVSS”, the “polyreactivity (PSR sort gate)” value is reported as “high polyreactivity”.
In the case of “QVQLVESWGGLVQAGGSLRLSCAASGFIFDNNALGWYRQAPGKERELVADISRSGGSTYADSVKGRFTISRDNAKNTVYFQMNSLKAEDTAVYYCAKDFQGRRPPKEPSAFYYWGQGTQVTVSS”, the “polyreactivity (PSR sort gate)” value is reported as “low polyreactivity”.
With “QVQLVESWGGLVQAGGSLRLSCAASGFTFRYYAMGWYRQAPGKERELVAAITGSGTRTYYADSVKGRFTISRDNAKNTVYLQMNSLKPEDTAVYYCNAPRQPRWFDYWGQGTQVTVSS” the “polyreactivity (PSR sort gate)” value was “high polyreactivity”.
For “QVQLVESWGGLVQAGGSLRLSCAASGFTFTRNAMGWYRQAPGKERELVAAISKSGGRTYYADSVKGRFTISRDNAKYNVYLQMNSLKPEDTAVYYCAVVPRPFGLGSDYDYWGQGTQVTVSS”, the “polyreactivity (PSR sort gate)” value was “high polyreactivity”.
With “QVQLVESWGGLVQAGGSLRLSCAASGIIFQNYDMGWYRQARGKERELVAAITGSGGSTYYADSVKGRFTISRDNAKNTVYLQMNSLKPEDTAVYYCNAVWEYYGKSDYWGQGTQVTVSS” the “polyreactivity (PSR sort gate)” value was “low polyreactivity”.
With “QVQLVESWGGLVQAGGSLRLSCAASGLTFNYYAMGWYRQAPGKERELVAAITSSGGSTYYADSVKGRFTISRDNAKNTVYLQMNSLKPEDTAVYYCNADVYAHRYIYGFDYWGQGTQVTVSS” the “polyreactivity (PSR sort gate)” value was “high polyreactivity”.
For “QVQLVESWGGLVQAGGSLRLSCAASGRIFHRYAMGWYRQAPGKEREFVAAITYSTGTTYYADSVKGRFTISRDNAKITVYLQMNSLKPEDPAVYYCAKDRRFWHKTWFAYGYDYWGQGTQVTVSS”, the “polyreactivity (PSR sort gate)” value was “low polyreactivity”.
